For one sequence, Kd results are on record in paper PMC9324360.

For orientation: Kd means a measure of binding affinity in units of concentration. A higher Kd goes with a looser complex.

Assay in all cases: MST
What all share (conditions): 0.5 mM Mg2+; MST: 10 mM Tris-HCl pH 8.5, 0.5 mM MgSO4, 50 mM KCl, 10 mM (NH4)2SO4, 0.05% Tween 20; 1 nM oligo; 10 min at 55 °C, measured at 25 °C

The test system of series [1] is Tt72 pol D78A/D384A (Thermus thermophilus MAT72 phage vB_Tt72).
The test system of series [2] is Tt72 pol D78A/D615A (Thermus thermophilus MAT72 phage vB_Tt72).
In series [3] the test system is Tt72 pol D78A (exo-) (Thermus thermophilus MAT72 phage vB_Tt72).
The test system of series [4] is Tt72 pol D78A/S616A (Thermus thermophilus MAT72 phage vB_Tt72).
Series [5] concerns Tt72 pol D78A/E389A (Thermus thermophilus MAT72 phage vB_Tt72).
Series [6] concerns Tt72 pol E17A (Thermus thermophilus MAT72 phage vB_Tt72).
Series [7] has as its system Tt72 pol D184A (Thermus thermophilus MAT72 phage vB_Tt72).
Series [8] relates to Tt72 pol D15A (Thermus thermophilus MAT72 phage vB_Tt72).
In series [9] the test system is Tt72 pol L27A (Thermus thermophilus MAT72 phage vB_Tt72).
Series [10] deals with Tt72 pol Y180A (Thermus thermophilus MAT72 phage vB_Tt72).
Series [11] relates to Tt72 DNA polymerase WT (Thermus thermophilus MAT72 phage vB_Tt72).

Take “TGGCTGCTTCTAAGCCAACATCCT / CTAGTGAGGATGTTGGCTTAGAAGCAGCCA [polTt72-Cy5/polTt72-long primer/template]”: the dissociation constant Kd was 100 nM in series [1]; 78 nM in series [2]; 109 nM in series [3]; 129 nM in series [4]; 68 nM in [5]; 529 nM in [6]. The Kd in [7] amounted to 144 nM; in [8], 232 nM; in series [9], 32 nM; in [10] it was 229 nM; in [11], 2 nM.
